Measured values taken from IntAct's records for PubMed 9428767.

B1: Serine/threonine-protein kinase STE20 (Saccharomyces cerevisiae), Q03497 (parent)
chain: MSNDPSAVSELPDKDSLDNGISNDNERAMGGNGDGGDGLRLPRTTGTLNVNALQKGTNAAHEAGGYKSMDPAKNAETTNDDDNNVVSLDDPIQFTRVSSSSVISGMSSSMSPHSNIDETKSLEAVTPNINTSNITPDHSADNTFSTINASESDHQFNDTLLSKLSLTDSTETIENNATVKHQQPVASSTVNSNKSSTDIRRATPVSTPVISKPSMTTTPRQINSASHSLSNPKHKQHKPKVKPSKPEAKSKPVSVKKSFPSKNPLKNSSPPKKQTEKSYYSSSSKKRKSGSNSGTLRMKDVFTSFVQNIKRNSQDDKRASSSSNNSSSSSITTALRISTPYNAKHIHHVGVDSKTGEYTGLPEEWEKLLTSSGISKREQQQNMQAVMDIVKFYQDVTETNGEDKMFKTFNTTTGLPGSPQVSTPPANSFNKFPPSTSDSHNYGSRTGTPMSNHVMSPTLNTDSSSANGKFIPSRPAPKPPSSASASAPIIKSPVMNSAANVSPLKQTHAPTTPNRTSPNRSSISRNATLKKEEQPLPPIPPTKSKTSPIISTAHTPQQVAQSPKAPAQETVTTPTSKPAQARSLSKELNEKKREERERRKKQLYAKLNEICSDGDPSTKYANLVKIGQGASGGVYTAYEIGTNVSVAIKQMNLEKQPKKELIINEILVMKGSKHPNIVNFIDSYVLKGDLWVIMEYMEGGSLTDVVTHCILTEGQIGAVCRETLSGLEFLHSKGVLHRDIKSDNILLSMEGDIKLTDFGFCAQINELNLKRTTMVGTPYWMAPEVVSRKEYGPKVDIWSLGIMIIEMIEGEPPYLNETPLRALYLIATNGTPKLKEPENLSSSLKKFLDWCLCVEPEDRASATELLHDEYITEIAEANSSLAPLVKLARLKKVAENMDADEDNDDDNDNEHINKTNNCDDNNDSKETVNLDVTEDDKQK
partner: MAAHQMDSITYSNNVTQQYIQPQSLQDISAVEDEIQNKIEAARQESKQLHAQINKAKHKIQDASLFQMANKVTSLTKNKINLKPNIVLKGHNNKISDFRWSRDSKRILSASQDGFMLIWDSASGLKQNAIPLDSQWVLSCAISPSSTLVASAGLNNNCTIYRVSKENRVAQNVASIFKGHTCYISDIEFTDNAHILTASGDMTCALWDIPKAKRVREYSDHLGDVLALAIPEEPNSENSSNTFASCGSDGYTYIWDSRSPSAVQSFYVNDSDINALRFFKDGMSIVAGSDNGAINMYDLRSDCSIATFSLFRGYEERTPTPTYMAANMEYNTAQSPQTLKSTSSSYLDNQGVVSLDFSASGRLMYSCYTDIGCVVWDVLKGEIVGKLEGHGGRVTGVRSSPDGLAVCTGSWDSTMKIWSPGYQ
B2: Guanine nucleotide-binding protein subunit beta (Saccharomyces cerevisiae), P18851 (parent)
chain: B1 partner
partner: B1 chain

Variants of: B1
Settings: with gbb_yeast STE4, P18851

effect of a mutation on the interaction | Variant
decreasing interaction | S879A;S880A;P883A

Variants of: B2
Settings: with ste20_yeast STE20, Q03497

effect of a mutation on the interaction | Variant
decreasing interaction | MAAHQMDSITYSNNVTQQYIQPQSLQDISAVEDEIQNKIEAARQESKQLHAQINKAKHKIQNASLFQMANKVTSLTKNKINLKPNIVLKGHNNKISDFRWSRDSKRILSASQDGFMLIWDSASGLKQNAIPLDSQWVLSCAISPSSTLVASAGLNNNCTIYRVSKENRVAQNVASIFKGHTCYISDIEFTDNAHILTASGDMTCALWDIPKAKRVREYSDHLGDVLALAIPEEPNSENSSNTFASCGSDGYTYIWDSRSPSAVQSFYVNDSDINALRFFKDGMSIVAGSDNGAINMYDLRSDCSIATFSLFRGYEERTPTPTYMAANMEYNTAQSPQTLKSTSSSYLDNQGVVSLDFSASGRLMYSCYTDIGCVVWDVLKGEIVGKLEGHGGRVTGVRSSPDGLAVCTGSWDSTMKIWSPGYQ [D62N]
decreasing interaction | MAAHQMDSITYSNNVTQQYIQPQSLQDISAVEDEIQNKIEAARQESKQLHAQINDAKHKIQDASLFQMANKVTSLTKNKINLKPNIVLKGHNNKISDFRWSRDSKRILSASQDGFMLIWDSASGLKQNAIPLDSQWVLSCAISPSSTLVASAGLNNNCTIYRVSKENRVAQNVASIFKGHTCYISDIEFTDNAHILTASGDMTCALWDIPKAKRVREYSDHLGDVLALAIPEEPNSENSSNTFASCGSDGYTYIWDSRSPSAVQSFYVNDSDINALRFFKDGMSIVAGSDNGAINMYDLRSDCSIATFSLFRGYEERTPTPTYMAANMEYNTAQSPQTLKSTSSSYLDNQGVVSLDFSASGRLMYSCYTDIGCVVWDVLKGEIVGKLEGHGGRVTGVRSSPDGLAVCTGSWDSTMKIWSPGYQ [K55D]
